We go through three molecules from publication PMC2805716, “Critical Structural and Functional Roles for the N-Terminal Insertion Sequence in Surfactant Protein B Analogs” (PLoS ONE, 2010).

For series [1] the following is noted: ESR, ref [30], cited from earlier work. From the text:
Although the “10 nsec” MD simulation of dimer S-MB provides a reasonable framework to account for our SDS-PAGE and SPR results (Figs. 8 and 10), it is worthwhile to consider other structural models by which the N-terminal insertion sequence may promote the self-association of S-MB. One possible alternative is that oligomeric S-MB may be due to the N-terminal sequence (residues 1-7) forming β-sheet. The N-terminal SP-B(1–9) (Fig. 2) was earlier proposed to act as a ‘biochemical Velcro®,’ facilitating in vivo either the aggregation of SP-B or the interactions of SP-B with SP-C [50]. In support ...

The conditions of series [2]: lipid monolayers containing palmitic acid; ref [31], [32]; cited from earlier work. From the text: (§1) Previous structural and functional studies with synthetic peptides representing the N- and C-terminal regions of SP-B further support the hypothesis that these charged amphipathic helices participate in surfactant activities. […] The cationic N-terminus of SP-B may here interact with anionic lipids to remove the driving force for lipid squeeze-out from the surface film, [32]. In additional studies, SP-B(1–25 ...

Series [3] relates to surfactant-deficient animal models. The note with it: ref [34]–[37]; cited from earlier work.
Description: as §1

Series [4] concerns the molecule itself. As to the kind of experiment: SDS-PAGE; 4 µg peptide in 8 µl buffer (50 mM MOPS, 50 mM Tris, pH 7.7, 0.1% SDS, 1 mM EDTA), neither heated nor reduced; 16% acrylamide gel; Coomassie blue and silver staining; molecular weight markers 2.5-16.9 kDa.
Series [5] addresses T1, Cys-MB (Mini-B with a cysteine added to its N-terminus, chip-linked) (human).
T1 construct: cysteine added to the N-terminus to link the peptide to the thiol Biacore chip; surfactant protein B (SP-B), human, residues 8-25; numbers count on: the mature protein (79 residues); surfactant protein B (SP-B), human, residues 63-78; Immobilised on the SPR chip; also called chipped MB; N-terminal Cys-MB
T1 chain: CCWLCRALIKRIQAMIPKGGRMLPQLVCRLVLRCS
In words: SPR; Biacore 3000; Cys-MB or Cys-S-MB linked to a thiol chip; MB or S-MB at 1 µg peptide/ml in HBS-EP (10 mM Hepes, pH 7.4, 150 mM NaCl, 3 mM EDTA, 0.005% surfactant P20) flowed over at 50 µl/min, 37°C; constants from curve fitting at the one concentration. The note with it: both partners purified.

The target in series [6] is T2, Cys-S-MB (Super Mini-B with a cysteine added to its N-terminus, chip-linked) (human).
T2 construct: cysteine added to the N-terminus to link the peptide to the thiol Biacore chip; surfactant protein B (SP-B), human, residues 1-25; numbers count on: the mature protein (79 residues); surfactant protein B (SP-B), human, residues 63-78; Immobilised on the SPR chip; also called chipped S-MB; N-terminal Cys-S-MB
T2 chain: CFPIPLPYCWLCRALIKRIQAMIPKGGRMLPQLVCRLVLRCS
Described as above. The note with it: both partners purified.

As to “SP-B(1–25): synthetic peptide based on the N-terminal domain of SP-B, residues 1–25 (FPIPLPYCWLCRALIKRIQAMIPKG; Pulmonary surfactant-associated protein B; UniProt P07988 201-225, looked up, fragment)”, the aggregation result in series [1] (PBS, spin-labeled at Phe-1) is reported as “primarily aggregated in PBS”. Besides, the “aggregation upon addition of SDS micelles” value in series [1] (SDS micelles added) is reported as “addition of SDS micelles rapidly dissociated these SP-B(1–25) aggregates”. The “collapse pressure of lipid monolayers” value in series [2] is given as “increase the collapse pressure”. Further, the “oxygenation and lung compliance” value in series [3] was “improved oxygenation and lung compliance”.

B1: SP-B: 79 amino acids, lipid-associating lung protein, covalently linked homodimer (protein, UniProt P07988 201-279, looked up)
Pulmonary …: FPIPLPYCWLCRALIKRIQAMIPKGALAVAVAQVCRVVPLVAGGICQCLAERYSVILLDTLLGRMLPQLVCRLVLRCSM
modifications: Pulmonary surfactant-associated protein B
notes: 79 amino acids, lipid-associating lung protein, covalently linked homodimer
As for B1, the “collapse pressure of lipid monolayers” value in series [2] was “increase the collapse pressure”.

B2: Super Mini-B (peptide)
chain: FPIPLPYCWLCRALIKRIQAMIPKGGRMLPQLVCRLVLRCS
notes: numbers count on: the mature protein (79 residues); surfactant protein B (SP-B), human, residues 63-78 (C-terminal helix region); the split into the two SP-B stretches follows the stated ranges (1-7 plus 8-25, and 63-78); Oxidised form with intramolecular disulfides Cys-8 to Cys-40 and Cys-11 to Cys-34; also called S-MB; SMB; source: synthetic peptide (Fmoc solid phase, HPLC-purified, …)
For B2, the “stoichiometry N” value in series [4] amounted to 2. In series [5], this molecule came in with an equilibrium dissociation constant (Kd) of 0.0521 µM, a koff of 0.00736 s⁻¹ and an on-rate constant (kon) of 141000 M⁻¹ s⁻¹. Besides, in series [6], the equilibrium dissociation constant (Kd) came to 0.0201 µM, the koff came to 0.000901 s⁻¹ and the kon amounted to 44700 M⁻¹ s⁻¹.
